Measurements: the nanobody polyreactivity screen of Harvey et al. (2022)

experiment: yeast display, Sf9 membrane polyspecificity reagent, FACS + sequencing; frameworks hold sequencing errors
Method in brief: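 Synthetic nanobody libraries on Saccharomyces cerevisiae BJ5465 were galactose-induced for 36–48 hours, stained 1 hour at 4 °C with 10% biotinylated, detergent-solubilized Sf9 membrane reagent and enriched on streptavidin microbeads. FACS then separated cells into low and high (top ~1%) gates by anti-HA (expression) and streptavidin (reagent binding) fluorescence. Genes were colony-PCR amplified, MiSeq 2 × 250 sequenced and CDR-length filtered. A clone's polyreactivity label is that of its gate of origin.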

| Sequence | polyreactivity (PSR sort gate) |
| --- | --- |
| QVQLVESGGGLVQAGGSLRLSCTASGRTLYNYTMGWYRQAPGKERELVATINFSGGSTYYADSVKGRFTISRDNAKNTVYLQMNSLKPEDTAVYYCNARGYHYAYKGAYLGDYYWGQGTQVTVSS | low polyreactivity |
| QVQLVESGGGLVQAGGSLRLSCTASGSIFVTNAMGWYRQAPGKERELVAAITWGGGNTTYADSVKGRFTISRDNAKNTVDLQMNSLKPEDTAVYYCAKDPYVNRDYWGQGTQVTVSS | low polyreactivity |
| QVQLVESGGGLVQAGGSLRLSCVASGLTQPYAMGWYRQAPGKERELVAAISSSGGRTSYADSVKGRFTISRDNAKNTVYLQMNSLKPEDTAVYYCNVDLGVNGDYWGQGTQVTVSS | low polyreactivity |
| QVQLVESGGGLVQAGGSLRLSCVASGRIIPGNAMGGYRQAPGKESELVAAISYGGGSTYYADSVKGRFTISRDNAKNTVYLQMNSLKPADTAVYYCAAASSGEYGYWGQGTQVTVSS | low polyreactivity |
| QVQLVESGGGLVQAGGSLRLSCVASGRTFSRYAMGWYRQAPGKERELVAAISRRGGSTYYADSVKGRFTISRDNAKNTVYLQMNSLKPEDTAVYYCAAGYITWGSGNWVVTPYDYWGLGTQVTVSS | high polyreactivity |
| QVQLVESGGGLVQAGGSLRLSCVASGSIFGSYAMGWYRQAPGKERELVASISDSGGSTDYADSVKGRFTISRDNAKNTVYLQMHSLKPEDTAVYYCAADDFSGYVTEYDYWGQGTQVTVSS | low polyreactivity |
| QVQLVESGGGLVQAGGSLRLSFAASEGWYRQAPGKERELVAAISYIGGSTYYADSEKGRFTISRDNAKNTVYLQMNRLKPEDTAVYYCAKGYPDPKWGGVLAYDYWGQGTQVTVSS | low polyreactivity |
| QVQLVESGGGLVQAGGSLRLSFAASGFTFRNYAMGWYRQAPGKERELVAAISTSGGRTYYADSVKGRFTISRDNAKNTVYLEMNSLKPEDTAVYYCNAGSGSYSYRYNYWGQGTQVTVSS | high polyreactivity |
| QVQLVESGGGLVQAGGSLRLSFAASGGTFRPYAMGWYRQAPGKETELVATIRSSGGRTYYADSVKGRFTISRDNAKNTVYLQMNSLKPEDTAVYYCAKRAQTYYGYDYWVQGTQVTVSS | high polyreactivity |
| QVQLVESGGGLVQAGGSLRLSFAASGGTLDVYAMGWYRQAPGKEREFVAAISWSGGRTYYADSVKGRFTISRDNAKNTVYLQMISLKPEDTAVFFCATDLYISIRYGGYYWGQGTQVTVSS | high polyreactivity |
| QVQLVESGGGLVQAGGSLRLSFAASGRIFAYYVMGWYRQAPGKARELVAAITGSGGSTYYADSVKGRFTISRDNAKNTVYLQMNSLKPEDTAVYYCNADFVWRGDYWGQGTQVTVSS | low polyreactivity |
| QVQLVESGGGLVQAGGSLRLSFAASGRIFKRNTKRWYRQAPGKETELVAAITYSGITYYADSVKGRFTISRDNAKNTFYLQMNSLKPEDTAVYYCDKVLYPIGSPRFEYWGQGTQVTVSS | low polyreactivity |
| QVQLVESGGGLVQAGGSLRLSFAASGRIFPHNAMGWYRQAPGKERELVAAISSNGGSTYYADSVKGRFTISRDNAKNTVYLQMNSLKPEDTAVYYCAKYRYFAGDGDYWGQGTQVTVSS | low polyreactivity |
| QVQLVESGGGLVQAGGSLRLSFAASGRTFDRNAMGWYRQAPGKERELVARITIDGSTNYADSVKGRFTISRDNAKNTVYLQMNSLKPEDTAVYYCATDQLSLSWYFRPYDYGYWGQGTQVTVSS | high polyreactivity |
| QVQLVESGGGLVQAGGSLRLSFAASGRTFGTNGMGWYRQAPGKEREFVAAITWNGGGTYYADSVKGRFTISRDNAKNTVYLQMNSLKPEDTSVYYSAKRTRWNYKGYGTGGYYWGQGTQVTVSS | high polyreactivity |
| QVQLVESGGGLVQAGGSLRLSFAASGRTFVINAMGWYRQAPGKERELVAAITWRGGSTYYADSVKGRFTISRDNAKNTVYLQMNSLKPEDTAVYYCAARWFPWLQLKRYDYWGQGTQVTVSS | low polyreactivity |
| QVQLVESGGGLVQAGGSLRLSFAASGRTFYYYASRWYRQAPGKERELVARIRSGGSTNYADSVKGRFTISRDNAKNTFYLQMNSLKPEDTAVYYCNALGAKGYVKGFDYRGQGTQVTVSS | low polyreactivity |
| QVQLVESGGGLVQAGGSLRLSFAASGSIFDDNAMGWYRQAPGKERELVAAITSTDSTNYADSVKGRFTISRDNAKNTVYLQMNSLKPEDTAVYYCARDIKHATSYEALYYSDYDYWGQGTQVTVSS | low polyreactivity |
| QVQLVESGGGLVQAGGSLRLSFAASGSIFIRNAMGWYRQAPGKERELVAAISIGDGSTYADSVKGRFTISRDNAKNSVYLQMNSLKPEDTAVYYCNAAGIVWRYYSYGYWGQGTQVTVSS | low polyreactivity |
| QVQLVESGGGLVQAGGSLRLSFAASGSTFKRYLMGWYRQAPGKERELVAAISSRGGSTYYADSVKGRFTISRDYANNTVYLQMISLKPEYTAVFYCATANVRAEDYWGQGTQVTVSS | high polyreactivity |

| Sequence | polyreactivity (PSR sort gate) |
| --- | --- |
| QVQLVESGGGLVQAGGSLRLSFAATGSILLRYAMGWYRQAPGKERELVAAISYDGGGTFYADSVKGRFTISRDNAKNTVYLQMHSLKPEDTAVYYCAARVIFRVKGLEYWGQGTQVTVSS | low polyreactivity |
| QVQLVESGGGLVQAGGSLRLSFAAYGRTIRWNAMGWYRQEPGKERELVAAITSRGGSTYYADSVKGRFTISRDNAKNTVYLQMNSLKPEDTAVYYCAKQPKPPPVTGYDYWGQGTQVTVSS | high polyreactivity |
| QVQLVESGGGLVQAGGSLRLSFAPSGRTIDPNAMGWYRQAPGKERELVAAITRTGVRKYYADSVKGRFTISRDNAKNTVYLQMNSLKPEDTAVYYCAASYSGRQDRYPHYDYWGQGTQVTVSS | low polyreactivity |
| QVQLVESGGGLVQAGGSLRLSGAASGGTFSNYAMGWYRPAPGKEREVVAAIRWRGGNTYYADSVKGRFTISRDNAKNTVYLQMNSLKPEDTAVYYCAAQTHDYTRSVGTTAYDYWGQGTQVTVSS | low polyreactivity |
| QVQLVESGGGLVQAGGSLRLSGAASGRIFWYNAMGWYRQAPGKEREVVAGITSGGRTNYADSVKGRFTISRDNAKNTVYLQMNSLKPEDTAVYYCAATHSLRMYYLGQGTQVTVSS | low polyreactivity |
| QVQLVESGGGLVQAGGSLRLSGAASGRTLKWYAMGWYRQPPGKERELVAAISWSGGSTYYADSVKGRFTISRDNAKNTVYVQMNSLKPEDTAVYYCAAYYIYSSVGKSLYASMEYWGQGTQVTVSS | low polyreactivity |
| QVQLVESGGGLVQAGGSLRLSGAASGSTFQYYAMGWYRQAPGKERELVAAISDGTNTNYADSVKGRFTISRDNAKNTVYLQMNSLKPEDTAVYYCAARFSSIVKYVGIGTDEYDYWGQGTQVTVSS | low polyreactivity |
| QVQLVESGGGLVQAGGSLRLSGAASGSTFRGYAMGWYRQAPGKERELFAAMTYISDSTYYADSVKGRFTISRDNAKNTVYLQMNSLKPEDTAVYYCNAYYDGDWRYTSQETGDHWGQGTQVTVSS | low polyreactivity |
| QVQLVESGGGLVQAGGSLRLSLAASGSIFSYYAMGWYRQAPWKERELVAAISYSGSDTYYADSVKGRFTISRDNAKNTVYLQMNSLNPEDTAVYYCAAEDPSYSYDYWGQGTQVTVSS | low polyreactivity |
| QVQLVESGGGLVQAGGSLRLSLAASGSNFSSYAMGWYRQAPGKEREWVAAIRLIGGTTYYADSVKGRFTISRDNAKNTVYLQMNSLKPEDTAVYYCNAPSYPDYIYWSQRYDYDYWGQGTKVTVSS | low polyreactivity |
| QVQLVESGGGLVQAGGSLRLSRAASGIMFGSYAMGWYRQAPGKERELVAAITSRGGSTYYADSVKGRFTISRDNAKNTVYLQMISLKPEDTAVYYCADVLYYWRVVYYVYADTGDYWGQCTQVTVSS | high polyreactivity |
| QVQLVESGGGLVQAGGSLRLSRAASGRIFHLYAMGWYRQAPGKERELVAAITGRGGSTYYADSVKGRFTISRDNAKNTVYLQMNSLKPEDTAVYYCAAYEFGFLRYYSGRSYYYWGQGTQVTVSS | high polyreactivity |
| QVQLVESGGGLVQAGGSLRLSRAASGRTFYGYAMGWYRQAPGKESELVARIRSGGSTNYADSVKGRFTISRDNAKNTFYLQMNSLIPEDTAVYYCAARPGAAGYKYYYWGQGTQVTVSS | high polyreactivity |
| QVQLVESGGGLVQAGGSLRLSSAASGFICATYSMGWYRQAPGKERELVASIRKSGGSTYYADSVKGRFTISRDNAKNTVYLQMNSLKPEDTAVYYCAKVYRYYPKYNYWGQGTQVTVSS | high polyreactivity |
| QVQLVESGGGLVQAGGSLRLSSAASGFIFEDYAMGWYREAPGKARELFAAISRRGGSTYYADSVKGRFTISRDNAQNTVYLQMNSLKPEDTADYYCAARKRYRPGERYEYWGQGTQVTVSS | high polyreactivity |
| QVQLVESGGGLVQAGGSLRLSSAASGFIFEPYAMGWYRQAPGKERELVAAIRWSDGSTFYADSVKGRFTISRDTAKNTVYLQMNSLKPEDSAVYYCNAVYEHRRVGWVTIDYGYWGQGTQVTVSS | low polyreactivity |
| QVQLVESGGGLVQAGGSLRLSSAASGFIFPAYAMGWYRQAPGKDRELVAAISKSGGRTYYADSVKGRFTISRDNAKNTVYLQMNSLKPEDTAVYYCNKYRYPREQYTWKYAWGYDYWGQGTQVTVSS | high polyreactivity |
| QVQLVESGGGLVQAGGSLRLSSAASGFIFRRYAMGWYRQAPGKERELVAAISGSGGRTYYADSVKGRFTISRDNAKNSVYLQMNSLKPEDTAVYYCAADQGSLLYDYWGQGTKVTVSS | high polyreactivity |
| QVQLVESGGGLVQAGGSLRLSSAASGFTFEENAMGWYRQAPGKERELVAAINWSGGNTYYADSVKGRFTISRDNAKNTVYLQMNSLKPEDTAVYYCAAVSTRYYYSVGPYYGYDYWVQGTQVTVSS | high polyreactivity |
| QVQLVESGGGLVQAGGSLRLSSAASGFTFSDNAMGWYRQAPGKERELVAAISRSGGNTHYADSVKGRFTISRDNAKNTVYLQMNSLKPEDTAVYYCAKYLYKSRIRSTFDYWGQGTQVTVSS | high polyreactivity |
